From paper PMC10767048 (Nature Communications, 2024)

Target: T1, bovine serum albumin (Bos taurus, UniProt P02769)
T1 construct: also called BSA
Experiment: ELISA
Conditions: both partners purified

T1 sequence (P02769 25-607): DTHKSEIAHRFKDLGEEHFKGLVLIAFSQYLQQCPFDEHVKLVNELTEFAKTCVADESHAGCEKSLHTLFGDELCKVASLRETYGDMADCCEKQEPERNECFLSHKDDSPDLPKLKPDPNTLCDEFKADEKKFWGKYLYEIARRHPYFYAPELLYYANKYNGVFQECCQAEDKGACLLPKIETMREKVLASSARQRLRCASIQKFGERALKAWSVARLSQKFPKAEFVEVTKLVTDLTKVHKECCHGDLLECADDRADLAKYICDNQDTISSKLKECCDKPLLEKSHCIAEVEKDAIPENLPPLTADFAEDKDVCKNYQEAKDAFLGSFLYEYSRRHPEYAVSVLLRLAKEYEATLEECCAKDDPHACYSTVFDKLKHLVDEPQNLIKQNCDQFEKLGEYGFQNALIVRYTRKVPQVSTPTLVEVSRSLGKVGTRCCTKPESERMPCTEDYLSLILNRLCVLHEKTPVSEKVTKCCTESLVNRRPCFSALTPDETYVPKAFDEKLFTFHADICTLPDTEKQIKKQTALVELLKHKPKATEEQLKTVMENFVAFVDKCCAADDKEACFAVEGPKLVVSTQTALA

B1: nanobody D5 (camel VHH) (VHH)
VHH: AWQLVESGGGSVQPGGSLTLTCQASKSTFSTSGMRWERQAQGKGVEFVADISSDSTRKWYSDSVKGRFTISRSNWWRTVTLQMNDLKPEDTARYYCKDLESHHLRGQGTQVTVSS
notes: source: E. coli HB2151 (pComb3x phagemid), released with polymyxin B, purified (HisTrap)
binding result: no binding (tested: 1 μg/ml)
